Measurements reported in the supplement of paper PMC9732359.
± gives the uncertainty stated by the source.

Assay: protein stability index of a GFP-peptide fusion (yeast GPS) (PSI 1-4); higher = more stable; sorted into four equal gates, so the index is relative within each strain
Outline: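 The protein stability index combines read frequencies across sorting gates, each weighted by its gate number and then summed. To obtain those frequencies, a pooled yeast library of GFP fusions to tiled 17-residue yeast protein peptides, on a plasmid also expressing Cherry, was grown to mid-log phase in leucine-free medium. The cells were sorted into four equal gates by GFP/Cherry ratio before plasmid amplification by PCR and Illumina sequencing.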

Sequence | protein stability index (doa10∆) | protein stability index (pdr5∆) | protein stability index (san1∆) | protein stability index (ubr1∆)
DQSISKLQSWDKVSSCF [NNF1] | 1.51 ± 0.072 | 1.59 ± 0.069 | 1.42 ± 0.1 | 1.82 ± 0.053
ADVLSILAMTYSENGKH [RPN1] | 1.64 ± 0.066 | 1.9 ± 0.1 | 1.45 ± 0.11 | 1.36 ± 0.052
FVAATTNAGYTIELAGG [FAS1] | 2.82 ± 0.063 | 2.97 ± 0.059 | 2.9 ± 0.11 | 2.68 ± 0.062
TKQIQSVRIDGRKVLQK [SIR4] | 2.32 ± 0.06 | 2.48 ± 0.055 | 2.03 ± 0.069 | 2.02 ± 0.04
SGCDSTKPSLRKASCIW [ECM29] | 2.86 ± 0.082 | 3.11 ± 0.075 | 2.63 ± 0.076 | 2.98 ± 0.066
DGIVVKNAVVRSKFGGD [ARP7] | 3.24 ± 0.26 | 1.92 ± 0.2 | 3.16 ± 0.25 | 3.56 ± 0.2
TAASEARKHKLKTLVQG [RPS27A] | 2.1 ± 0.24 | 2.75 ± 0.22 | – | 3.04 ± 0.18
NIALVSKLRNNIRSQLL [SRP54] | 2.13 ± 0.069 | 2.56 ± 0.058 | 2.5 ± 0.053 | 2.61 ± 0.065
HTTQIVNLEDNTQDLLL [YML103C/NUP188] | 3.21 ± 0.11 | 3.35 ± 0.12 | 3.27 ± 0.069 | 3.07 ± 0.086
SDTSKPAFTFGAQKDNE [YJL041W/NSP1] | 3.32 ± 0.094 | 3.32 ± 0.087 | 3.36 ± 0.074 | 3.48 ± 0.059
FIGRLPIMLRSKNCYLS [RPB2] | 1.43 ± 0.072 | 1.58 ± 0.081 | 1.17 ± 0.14 | 1.19 ± 0.054
PEDAQLLLAANTHLGAR [RPS0A] | 1.63 ± 0.058 | 1.39 ± 0.052 | 1.63 ± 0.12 | 1.9 ± 0.068
LCVLDYDNIDIQRGRIL [RPB7] | 1.96 ± 0.1 | 1.93 ± 0.1 | 3.08 ± 0.13 | 2.42 ± 0.12
TKVNNQLIKVAVHNGGR [RPL9A] | 1.92 ± 0.074 | 1.52 ± 0.06 | 1.78 ± 0.086 | 2.4 ± 0.029
YTYLYVRMLASPMLYKV [BRR2] | 1.13 ± 0.12 | 1.19 ± 0.21 | 1.22 ± 0.21 | 1.26 ± 0.11
EEQLDALECRLASAIAS [CSN12] | – | 2.02 ± 0.15 | 2.38 ± 0.12 | 1.81 ± 0.088
LLQVNKTFCEDPFSDVD [GRR1] | 3.13 ± 0.072 | 3.35 ± 0.051 | 3.32 ± 0.035 | 3.28 ± 0.036
RQPANTKIGAKRIHSVR [RPS8A] | 3.08 ± 0.076 | 3.26 ± 0.075 | 2.74 ± 0.07 | 3.04 ± 0.076
LHYLKKFKHIDDKYGRK [SRP72] | 2.91 ± 0.061 | 2.88 ± 0.057 | 3.07 ± 0.055 | 2.85 ± 0.041
KRKKEANEEPNTENVES [ITC1] | 3.1 ± 0.062 | 2.74 ± 0.046 | 2.78 ± 0.07 | 2.65 ± 0.034
MNKIFTIFKSGEIDFIK [YML103C/NUP188] | 2.51 ± 0.091 | 2.62 ± 0.054 | 2.41 ± 0.075 | 2.59 ± 0.06
VGVVFGSGAANENPYNN [COR1] | 3.24 ± 0.15 | 3.23 ± 0.088 | 3.21 ± 0.087 | 3.07 ± 0.12
SKFSKQQAKGAFQKVAA [RPL24A] | 2.21 ± 0.065 | 2.7 ± 0.078 | 2.9 ± 0.05 | 2.54 ± 0.05
LKNKREIYRISFQLSKI [RPS9B] | 3.34 ± 0.18 | 3.66 ± 0.16 | 3.54 ± 0.062 | 3.38 ± 0.12
LNELHPTLPTNHNKTKL [PRP8] | 2.88 ± 0.064 | 3.08 ± 0.062 | 2.84 ± 0.056 | 2.72 ± 0.039
SEPLTLKVLSEHLDCMN [PCI8] | 1.91 ± 0.064 | 2.29 ± 0.065 | 2.73 ± 0.055 | 1.93 ± 0.058

Sequence | protein stability index (doa10∆) | protein stability index (pdr5∆) | protein stability index (san1∆) | protein stability index (ubr1∆)
AAIHAKRVTIQKKDIKL [HHT1] | 2.92 ± 0.086 | 3.04 ± 0.12 | 3.14 ± 0.091 | 3.1 ± 0.075
DGKEDVEKGTPLGKILL [SME1] | 3.57 ± 0.071 | 3.44 ± 0.09 | 3.53 ± 0.053 | 3.56 ± 0.075
KNFENGPKKNVFYAPNV [RPC34] | 2.99 ± 0.068 | 2.94 ± 0.071 | 2.66 ± 0.084 | 3.14 ± 0.063
KGEMKGSAITGPVGKEC [RPL23A] | 3.19 ± 0.065 | 2.98 ± 0.065 | 3 ± 0.051 | 3 ± 0.044
SPYAAMLAAQDVAAKCK [RPS14A] | 2.28 ± 0.05 | 1.82 ± 0.048 | 1.62 ± 0.067 | 1.88 ± 0.048
KLELINRYAYVLSSLMF [LRP1] | 2.21 ± 0.05 | 2.31 ± 0.049 | 1.94 ± 0.064 | 2.65 ± 0.046
KFLQVMQKHGYIGEFEY [RPS22A] | 2.68 ± 0.063 | 2.27 ± 0.059 | 2.11 ± 0.092 | 2.6 ± 0.054
KEKIEKLSKSATESIKN [SMC1] | 3.28 ± 0.12 | 2.99 ± 0.21 | 2.97 ± 0.079 | 3.07 ± 0.072
TKFSNPAIPPVIDLEKI [BRR2] | 2.57 ± 0.068 | 2.75 ± 0.068 | 2.66 ± 0.063 | 2.65 ± 0.052
AIVVGWRAIIKAIFPNT [FAS1] | 2.44 ± 0.1 | 2.71 ± 0.14 | 2.41 ± 0.086 | 2.33 ± 0.15
ISSRTYGQRAVLKFAAH [RPS0B] | 1.78 ± 0.064 | 2.22 ± 0.095 | 2.26 ± 0.09 | 1.64 ± 0.069
MTDIWNTLIPESSLTIS [ECM29] | 2.22 ± 0.064 | 2.46 ± 0.054 | 2.14 ± 0.1 | 2.87 ± 0.058
ISVTDTEVERAKSLLKL [COR1] | 3.3 ± 0.1 | 3.26 ± 0.084 | 3.08 ± 0.053 | 3.24 ± 0.084
MLRTVTSKTVSNQFKRS [COR1] | 3.11 ± 0.15 | 2.9 ± 0.092 | 2.92 ± 0.083 | 3.02 ± 0.1
LHNLNEYQIVYYNPQAG [RGR1] | 1.41 ± 0.27 | 2.44 ± 0.15 | 2.1 ± 0.11 | –
ILVKRYSIEMKPYSGKL [ECM29] | 1.58 ± 0.048 | 1.76 ± 0.049 | 1.79 ± 0.073 | 2.43 ± 0.044
YSLQPSVDITGGPWFTD [RPC34] | 1.89 ± 0.079 | 2.54 ± 0.12 | 2.86 ± 0.089 | 2.49 ± 0.064
PHSLATKTTGKCGSVTV [RPS2] | 1.2 ± 0.12 | 1.27 ± 0.1 | – | –
KKISSFKSLIDEDLLDT [YGL172W/NUP49] | 3.08 ± 0.097 | 3.21 ± 0.079 | 3.12 ± 0.062 | 3.14 ± 0.063
GFDIQKSCEPVSISTSV [SIR4] | 1.36 ± 0.091 | 1.73 ± 0.13 | 1.51 ± 0.27 | 1.56 ± 0.07
LLENSVDKNFDKLELYV [MTW1] | 3.03 ± 0.052 | 2.64 ± 0.065 | 3.15 ± 0.065 | 2.97 ± 0.048
TQKTELEIDNKDSVTEC [SIR4] | 1.74 ± 0.061 | 3.15 ± 0.12 | 2.78 ± 0.14 | 2.5 ± 0.085
DYIEFNITFSEELVSLA [YJL039C/NUP192] | – | – | 1.54 ± 0.27 | 1.61 ± 0.28
EEGRAIPGEYITYALSG [RPS21B] | 2.99 ± 0.073 | 3.1 ± 0.11 | 2.88 ± 0.078 | 2.96 ± 0.044
NMNLNPQMFLNQQAQAR [GAL11] | 1.92 ± 0.035 | 2.42 ± 0.035 | 2.37 ± 0.056 | 2.04 ± 0.03
